{"source": "the DeepSol protein solubility set", "data": [{"assay": "soluble on expression in E. coli; label from the status in PepcDB or PDB records", "values": [{"sequence": "MEHREALIALRTFLSTQILGQEKLIERLLIALLADGHMLVEGAPGLAKTKAIKELAEGIEAQFHRIQFTPDLLPADITGTEIYRPETGSFVFQQGPIFHNLVLADEINRAPAKVQSALLEAMAERQVSVGRSTYDLSPLFLVMATQNPIEQEGTYPLPEAQLDRFLMHVKIGFPDAAVERKILQQARGEALNGETKPERRVSQQAIFAARKEILGLYMADAVEEYLVQLVMATRTPAKFDPELAEWIAYGASPRGSISLDRCARAHAWLAGRDFVSPEDIQAVLFDVLRHRIILSFEAEAAGIDQDRVIQRILDVVAVALEHHHHHH", "soluble on expression in E. coli": "soluble"}, {"sequence": "MEHTIAVIPGSFDPITYGHLDIIERSTDRFDEIHVCVLKNSKKEGTFSLEERMDLIEQSVKHLPNVKVHQFSGLLVDYCEQVGAKTIIRGLRAVSDFEYELRLTSMNKKLNNEIETLYMMSSTNYSFISSSIVKEVAAYRADISEFVPPYVEKALKKKFKLEHHHHHH", "soluble on expression in E. coli": "soluble"}, {"sequence": "MEIDDCIRDNIPWANLSPDIKVILGNSSKEYEKRVLEYSIQNQLRYKGNLIRHMKKSEEAYYEQLLRFSESHLMLYPYHLSDITVTEMRLSPFSYYANILTEMLNTEKSYDSLPNFTAADAVRLLGIGRNQYIELMNQTRSNRKFLRRSKSARELLPQKPTKMIVESWWRTNVGSILESDVKTLNEEEKQVIDRLLDTNVAIPAGLLKYSVVTSLYDRGLIYFDVPVYDNDYIYVAPLDGFVMNRVLGDYFETLLYKIFVAIDDQTTVLEMSQILHIDLQLVKNAISVFCRLGFARKRVTGGENLTIHTSWTSNSTVTTPMSPISPMSSLITSTSDELNELTKTLLRGDDDETDDALSPVSEDSALRASSPNPSLNNSVESFQSLSTSQTASDLSGSSGTVNRAAFIFDSTLTAFLMMGNLSASLKGHAVALFEVGKLADEQMKEFLEQLESVNQFAEGDAQRYSMHATALLDSLKSLRQEREADLIRGESLYTLDEKSRQRVLQKSYGILVAMAPLSIEACAIPVQSVPLIGPPNAETCSPWFRLSIYSACSSGPPSVFLPHGTRLTTLPRVLQSFQHHRFLVSSTKHEPHIMTAQNALFALNDMLVYSSIFVQSVPLDSEDCDKMIHVPFPFEDLECETAFCNHPAIRKLREQLSLDFTAGYVILLKKSGKSITTSGSDISGRTKAESNIMQDVSLPKDGGLLKKLLPGTSFDDFLLLDCVFGVPLFNSVLNETICKRILGRGILEQQNRSNIQNSNKQVVGMINELIDTANNGLIKGSQLFVEGTDQQRNAQIVPPVRAIFFDSSQLISYGTI", "soluble on expression in E. coli": "not soluble"}, {"sequence": "MEIERINEHTVKFYISYVDIEERGFDREEIWYNRERSEELFWEMMDEVHGESDFSLDGPLWIQVQALEKGLEVVVTKAQLSKDGSKLELPLPEEKWREFSLSADEKVESLFGHHFHFGQNGDAEEREEQDVLRFILSFKDIEDVISLAHRADFSRLSNRLFQFEGRYYLFVEFDERYTEQEVDNMLSLLLEYGSDSQLTIYRLEEYGTEIMGDNALETIKTYFPAS", "soluble on expression in E. coli": "not soluble"}, {"sequence": "MEIIKISPRGYCYGVIDAMVIAKNASLDPNLPRPIHILGMIVHNKHVTDAFESIGIYTVDGANREEILDKITTGTVIFTAHGVSPSVKAKAVAKGLTTIDATCPDVLHTYNLILEKQAAGYEIIYIGKKGHPEPEGAYGTAPDVVHLVETKADIDALSLLSDKIFVTNQTTMSKWDVADLMHYIKGKFPKAIQHQEICMATQVRQEAVALQAKDADLTIVVGDPRSNNTARLAQVSIEKAGTKAYRIADITELDIEWIKDAKKVAVTAGASTPTQLVREVLLFLEQFDAADKTTWKREHNQDFERILPKTKNKYMAEKRSQRLAHLKNGGSLEHHHHHH", "soluble on expression in E. coli": "not soluble"}, {"sequence": "MEIKQTIAKNLNRVKNELGLKNQDLAEVMGVTRQTIAKYLKGEQIPDSAKLFLLSRRLNIPMKDLIVSSDDQREPMSSFMFRADNPKENFRLIDQNQVNRIMDDYYELLASFGEASVAYLPPTYKLKLVDHELTEEHKTIIRQAAEQTRKMFGLDHVIPSDIYAVLEHHGIHVIALKTIDKKIDGLSAYSEEKGAFIFLNDHDEIPEERKRFSVIHELGHLIFHREEYRSDLSSLTYSSARREINEKVATLFASYFLIPREQLREYAYYFKRYVTIETIMELKRQFFVSAEAFMRALLDEQYISGRTYGFLRKTLREQGYKEQEPAPIDYIPKNRKLTYFVKQAYFEGSITINKVCEILGCDLRTAREMIKGWYKEHGCSENTGAL", "soluble on expression in E. coli": "not soluble"}, {"sequence": "MEILEEKPKEGKVKIKVETLDDLWHLYHIITPGDVVYAKTLRKQSQRSDSLRPEKVEVIPVFLGVKVEKINFHKFANQLRVTGPIIYASREDVPLGKYHTIAVEPGTIITLQKERWKPYYIERLKEAVEASKRAKVMIVTIEDGEAEMAIVREYGLDFIATIRHNLGGKRYNIKREDEERKFFHDVAKTMKDVMSRENIQRAIVAGPGFYKEDFYKFLKENYPDLASKIVLDDTSMGGRVGIYEVIKRGTVDKVYSESRIANEIKLVEKVIERIAKDEPVAYGMKEVEEAVNYGAVEILLVLDELLKGDNREKVEELMELARSLRSKVVVVSSEHEGGEKLKALGGIAGILRFKIK", "soluble on expression in E. coli": "soluble"}, {"sequence": "MEIQDYTDSEFKHALARNLRSLTRGKKSSKQPIAILLGGQSGAGKTTIHRIKQKEFQGNIVIIDGDSFRSQHPHYLELQQEYGKDSVEYTKDFAGKMVESLVTKLSSLGYNLLIEGTLRTVDVPKKTAQLLKNKGYEVQLALIATKPELSYLSTLIRYEELYIINPNQARATPKEHHDFIVNHLVDNTRKLEELAIFERIQIYQRDRSCVYDSKENTTSAADVLQELFFGEWSQVEKEMLQVGEKRLNELLEK", "soluble on expression in E. coli": "soluble"}, {"sequence": "MEIRPTRIELIRTRRRIKLARKGLDLLKMKRSALIYEFLQISRTIRGMRENLRREVEDALNTIRTAEILEGQVALERIANMSSDSTINVDSRNVMGVVIPTLNLTYNLSILSDVYRTISVPVAINDAIDRFQRLFLNLIQILEKENALRNLLIEIDKTKRRSNAIENILIPRLEYQAKMIKMMLDERERDTFTTLKTIKKKIEAGKDEE", "soluble on expression in E. coli": "not soluble"}, {"sequence": "MEIRVANKYALGKKLGSGSFGDIYVAKDIVTMEEFAVKLESTRSKHPQLLYESKLYKILGGGIGVPKVYWYGIEGDFTIMVLDLLGPSLEDLFTLCNRKFSLKTVLMTADQMLNRIEYVHSKNFIHRDIKPDNFLIGRGKKVTLIHIIDFGLAKKYRDSRSHTHIPYKEGKNLTGTARYASINTHLGIEQSRRDDIEALGYVLMYFLRGSLPWQGLKAISKKDKYDKIMEKKISTSVEVLCRNASFEFVTYLNYCRSLRFEDRPDYTYLRRLLKDLFIREGFTYDFLFDWTCVYASEKDKKKMLENKNRFDQTADQEGRVKQN", "soluble on expression in E. coli": "not soluble"}, {"sequence": "MEIVLTREKMEITATPIRTRYIDRNEDFVSESIHSLKKEIENGFEIKNGDFLVVSEKFIATSEDNFVDESLADPKFWAYFTYYLSKYGWGYVLGPLLGTRGDRVKNLRKMPKTETLKHKQIVIENVGLIYALKPASEGGIDLTNVPGTYASLLPENPEYSAKKLHKKIKEDLDLDLTVMVIDTDATYRFFNWYVTALPIAVEGITSKIGVFGYILGKFGKILNQGGLCGATPLAITGNENYKKYPLKTLLYIANLSDTSQVPYTKSIHDLMKKYNTFEITVDVLKEMEHSPLVIVKCE", "soluble on expression in E. coli": "not soluble"}, {"sequence": "MEKAIHNLGKDARLHIIHILLQNRSKKELADELGITPAAITKYLKGITHPSDEIIEKCIEIASEDEEYHEIIKVIVSDITEALMELLREIGIEKMIDNEDIQKLKKLLDKAFDKMLSTSPSFV", "soluble on expression in E. coli": "not soluble"}, {"sequence": "MEKLDGVANTLYVPLYGRIYVSKKFPEYFYDEMALKIEEKFTSGISKGSFEYTNMAYGARYYNMDKMIIKFIEEHKISNIILLGIGLETAYDRITQKCGLGEVNYYGIDLPEVIEIRKKYFGERKQETLIAGDMFEMEWKEQIDTSIPTLLIVSGVFQYFFEDKIIEFIKNLKKEFPYGELVFDTARKKTGLRFANWYIRRTGNLEALMHFYIEDSVDFSKKTDTILVEELTFFKDARELLRKKLNFITKLFMKIADSKRQALIIHLKWLEHHHHHH", "soluble on expression in E. coli": "not soluble"}, {"sequence": "MEKLINRVGPNGESRAQAVTSDQEKRLLHQLREITRVMKEGKFIDTSPEKEAEEAPYMEDWEGYPEETYPIYDLSDGIKRRQETILVDYPDLKEPSAEEIAEQMGEIEEEGSERLSWDHLPTDPGAQKDNSVAPCDPKPESCSCCVHEEEDPAVLAENAGFSADGYSEQEEATKENLPQDFTNEGLGVSTDNAHVGGMLRKRNPQGFE", "soluble on expression in E. coli": "not soluble"}, {"sequence": "MEKMYNVGKIVNTHGLIGEIRVIATTDFPEERFQVGNTVYLFEKNSKKPEKLIIRSHRKHKNFDLLMFEGFTGIHQVERMKEGVLKIKETQLTNLEENEFYFHEIIGCTVVTTDGEELGEITEILTPGANDVWVVKGADKKEKLIPYIADVVKEINIDDQKITIEVMEGLLD", "soluble on expression in E. coli": "soluble"}, {"sequence": "MEKNGLFSQRIRLRHLHTFVAVAQQGTLGRAAETLNLSQPALSKTLNELEQLTGTRLFERGRLGAQLTVPGEQFLTHAVKVLDALNTAGQALNRKEDASADVVRVGALPTAALGILPAAIGRFHQQQKSTSLQVATMNNTMLLAGLKSGEIDLGIGRMSDPELMGGLNYELLFLESLKLVVRPGHPLLQETITLSRVMEWPVVVSPKGTVPRQNAEALLQSQGCKMPAGCIETLSASLSRQLTVDYDYVWFVPSGAVKEDLRQATLVSLPVPTQSAGEPIGILTRVDIPLSTGAQMLIAAIRKSMPL", "soluble on expression in E. coli": "not soluble"}, {"sequence": "MEKQYRVLLYYKYVPIEDPEAFREQHLAFCKELGLLGRILVSSEGINGTVSGTVEQTEKYMETMKADPRFADMVFKIDEAEGHAFKKIFVRHKKELVTLRLEDDVDPNETTGQHLKPAEFYEKMQDPNTIVIDARNDYEYDLGHFRGAVRPDIEAFRELPEWIEEHKDMLEGKKILTYCTGGVRCEKFSGWLVKQGFEDVAQLDGGIVTYGKDPEVQGKLWDGQCYVFDERISVPVNRVEHVIVGKDYFTGEPCERYVNCANPSCNKKMICTPENEYKYMRSCSHECRTNPRNLYVKEHNMTEEEVNARLAAIETEDHAAAE", "soluble on expression in E. coli": "not soluble"}, {"sequence": "MEKRNIQVTRHFVCADQLQQISETVIACLGQEDLITISGGLGPISDDKTRDAVAKAVRQPLFHHEDVWQTIKGQLGWLGSTPDSNNARQALFPETAKVLDNPTGTAPGFYLSCGESILVILTGSLTQAFALLENYLEHGEKKYSSVSRARYAWILIGIDESAIAHWVDCQLANELFERHFYGKALMFSYNWLASHQRFWLSI", "soluble on expression in E. coli": "not soluble"}, {"sequence": "MEKSWYVVHTYSGYENKVKANLEKRVESMGMQDKIFRVVVPEEVEVEMKNGKEKLMKRKVFPGYVLVELIMTDDSWYVVRNTPGVTGFVGSSGSGSKPSPLLEEEVVTIMKHMGMDNEVVDFDFELHETVRVNEGPFADYTGAIEEIDVEKKKVSVLVDMFGRETPVELDFHQIEKL", "soluble on expression in E. coli": "soluble"}, {"sequence": "MEKVKKIVLIGASGFVGSALLNEALNRGFEVTAVVRHPEKIKIENEHLKVKKADVSSLDEVCEVCKGADAVISAFNPGWNNPDIYDETIKVYLTIIDGVKKAGVNRFLMVGGAGSLFIAPGLRLMDSGEVPENILPGVKALGEFYLNFLMKEKEIDWVFFSPAADMRPGVRTGRYRLGKDDMIVDIVGNSHISVEDYAAAMIDELEHPKHHQERFTIGYLEHHHHHH", "soluble on expression in E. coli": "soluble"}, {"sequence": "MEKYEEVLVSIRQIIRAIDLHSKKLSKESGLTAPQLILMRAINELDNVTIKQLSNHTNMSQATATTILDRLERNQLVERRRSVEDKRKVHAVLTEKGEEALRQAPTPLQEHFINRFQKLEEWEQTLLLSSVQRISTMMNAEDIDVAPLLEIGSITKPE", "soluble on expression in E. coli": "not soluble"}, {"sequence": "MELDVFAGQEKSELSMIEVARAILETRGRDKEMYFNDLVNEIQNYLEKSDADIRSSLPFFYSDLNTDGSFIPLGDNKWGLRSWYAIDEIDEEVITLEDIDENAPKRKNKKVNAFMDGDEDAIDYNDDDPEDENFTPSSAILEYDNDNEDDENAEVESYDSELNEIIPDDDLDDVELSEEDDDDDDDYEDETND", "soluble on expression in E. coli": "not soluble"}]}]}
